In US12065505B2, “Antibodies and antigen binding peptides for factor XIa inhibitors and uses thereof” (Bristol-Myers Squibb Company, priority 2021, dated 2024):
Read-outs that look alike come from different tables or passages of the source.

How the values were obtained:
[1] = Competitive TR-FRET assay modified for mAbs and Fabs (T0, T24, T48); format: binding; conditions: 37° C.; for T24 hr IC50 shift: IC50 shift at 24 hr relative to T0; for T48 hr IC50 shift: IC50 shift at 48 hr relative to T0
Protocol: A competitive TR-FRET (time-resolved fluorescence resonance energy transfer) assay was developed to rank-order the dissociation of α-Compound A mAbs from Compound A as equilibrium is reached at 37° C. The assay buffer was HBS-N (10 mM HEPES, 150 mM NaCl, pH 7.4; GE Healthcare), 0.1% (w/v) BSA (bovine serum albumin; Sigma), 2% DMSO (dimethyl sulfoxide; Sigma). All reagents were prepared in assay buffer and dispensed in equal volumes into white 384 microplates with final volume of 20 μl per well at the following final concentrations: 4 nM COMPOUND 5, the biotinylated analog of COMPOUND 2, a 100 0.1 nM 7-pt titration of human α-Compound A antibodies, 0.1 nM europium-labeled α-mouse IgG (LANCE Eu-W1024; PerkinElmer), 5 nM streptavidin-D2 (Cisbio), and 4 nM mAb 26D5 VH_A10G_Y33A_S53P_M89V_G95A; VK_W32N_H38Q (P1-075621, the second-round optimization parent 26D5-295-B08 formatted with mouse IgG Fc). COMPOUND 5 and α-Compound A antibody titrations were added first to the microplate, and were subjected to an initial incubation at 37° C., 1000 rpm, for one hour to facilitate antibody binding to the compound. After the initial incubation period, the europium α-mouse IgG, streptavidin-D2, and 26D5-mouse IgG (P1-075621) were added sequentially, then the plate was returned to 37° C., 1000 rpm incubation. Microplates were read using a Perkin Elmer EnVision plate reader, and the measured FRET signal was defined as [665 nm]/[620 nm]*10,000. Microplates were read at 30 minutes (T0) and after 24 hour (T24) intervals. For each antibody titration, the FRET signal was converted to % Inhibition relative to wells without α-Compound A antibody: (100 ((FRET at [antibody concentration]/FRET at 0 nM)*100). The % inhibition antibody titrations were plotted using TIBCO Spotfire (v.7), and the IC50 was determined using a 4-parameter model curve fit. The IC50s at each timepoint were reported, as well as the IC50 curve shift relative to T0. An IC50 curve shift indicated α-Compound A antibody dissociation from the biotinylated compound as the assay reached equilibrium, which subsequently allowed 26D5-mouse IgG1 (P1-075621) competitor to bind and generate the FRET signal detected in the assay.
The competitive TR-FRET assay defined above was also modified to assess optimized 26D5 antibody progeny that were reformatted as Fabs. The α-Compound A antibody and Fab titration series were extended to 250 0.244 nM (11-pt titration), and replicates of each concentration were collected in quadruplicate. The assay incubation was extended to include an additional 48 hr timepoint to ensure equilibrium was reached, and T48 hr IC50 and IC50 shifts were reported. The % inhibition titrations were plotted in Graphpad Prism (v.8) and fit to a 4-parameter model. All other experimental setup conditions were otherwise identical to the antibody TF-FRET assay.
Competitive FRET data collected for affinity-optimized α-Compound A 26D5 progeny comparing human antibodies and Fabs are shown in FIG. 14 and Table 13. Each panel represents a single α-Compound A sequence, with antibody (mAb, solid lines, circles) and Fab (dotted lines, triangles) formats overlaid. […] The names of the mAbs/Fabs in Table 13 refer to the corresponding sequences in Tables 1-3. All mAbs listed in Table 13 were in a human IgG1f/LC kappa format.

[2] = SPR (Biacore) Protein A mAb capture, Compound A injected; conditions: 37° C., binding to Compound A, for rank ordering only
Protocol: The binding of hybridoma expressed 26D5 parent mAb (VH SEQ ID NO: 83 and VL SEQ ID NO: 98 in IgG1 f format)(P1-072224) and affinity matured mAbs to Compound A was examined by SPR (Biacore™) using a protein A capture method. The running buffer was 1×PBS (phosphate buffered saline, pH 7.4) with 0.05% Tween 20 and 2% DMSO. Binding experiments were carried out at 37° C. Protein A was coated on a CM5 S-series sensor chip (Cytiva, Cat. No. 29149603) at high density (2000+ RUs of protein A). The immobilization of protein A was carried out using the standard amine coupling immobilization procedure recommended by the manufacturer. The affinity matured antibody was then captured at a concentration of 2 ug/mL on the protein A surface at a flow rate of 3 uL/min for 2 minutes. Compound A was then injected over the captured antibody at concentrations spanning 100-3 nM (100, 50, 25, 12.5, 6.25, 3.125 nM) (FIG. 10) and for screening concentrations spanning 100-3 nM (100, 33, 11 nM) for 2 minutes at a flow rate of 100 uL/min and allowed to dissociate for at least 450 seconds. The chip surface was regenerated after each cycle with a 40 second pulse of 10 mM Glycine, pH 1.5. Background binding to the protein A surface alone was used to subtract non-specific binding. All experiments were run on a Biacore T200 surface plasmon resonance instrument using Biacore T200 Control software v. 2. Data analysis was performed using Biacore T200 evaluation software v 3.1. Apparent affinities were determined for rank ordering only since dissociation rates were too slow to be measured by Biacore. The names of the mAbs in Table 10 refer to mAbs having the H and L chain sequences of the corresponding Fabs in Table 3 in an IgG1f format.

[3] = read at 30 minutes (T0), competitor 26D5-mouse IgG (P1-075621), read-out: T0 IC50
[4] = apparent affinity, read-out: KD

Molecule	IC50 ([1]; 24 hr, read-out: T24 hr IC50) [nM]	IC50 ([1]; 48 hr, read-out: T48 hr IC50) [nM]	T24 hr IC50 shift [1] [nM]	T48 hr IC50 shift [1] [nM]	IC50 [1, 3] [nM]	Kd [2, 4] [nM]	Ka ([2]; apparent) [M⁻¹ s⁻¹]	Kd ([2]; apparent) [s⁻¹]
26D5-75768-348-A10-mAb: human IgG1f/kappa mAb; VH SEQ ID NO: 56, VL SEQ ID NO: 89 (antibody, V domains shown) VH: EVQLVESGGGLIQPGGSLRLSCAASGFTVSSNAVSIVRQAPGKGLEWVAYIYPGGRTYYADSVKGRFTISRDNSKNTLYLQMNSLRAEDTAVYYCTIGGFGGGDYWGQGTLVTVSS VL: DIQMTQSPSSVSASVGDRVTITCRASQGISSNNQWYQQKPGKAPKLLIYYASSLQSGVPSRFSGSGSGTDFTLTISSLQPEDFATYYCQQGNEFPLTFGGGTKVEIK	2.2	2.3	1.0	1.1	1.2	< 0.1	3.8e+06	<0.00041
26D5-296-D03-mAb: human IgG1f/kappa mAb; VH SEQ ID NO: 76, VL SEQ ID NO: 88 (antibody, V domains shown) VH: EVQLVESGGGLIQPGGSLRLSCAASGFTVSSNYMSWVRQAPGKGLEWVSFIYSGGETFYADSVKGRFTISRDNSKNTLYLQMNSLRAEDTAVYYCARGGFGGGDYWGQGTLVTVSS VL: DIQMTQSPSSVSASVGDRVTITCRASQGISSNLAWYQQKPGKAPKLLIYAASSLQSGVPSRFSGSGSGTDFTLTISSLQPEDFATYYCQQANSFPLTFGGGTKVEIK						0.71	1.7e+06	0.0012
26D5-75229-343-A10-mAb: human IgG1f/kappa mAb; VH SEQ ID NO: 52, VL SEQ ID NO: 84 (antibody, V domains shown) VH: EVQLVESGGGLIQPGGSLRLSCAASGFTVSSNAMSWVRQAPGKGLEWVSYIYPGGRTYYADSVKGRFTISRDNSKNTLYLQMNSLRAEDTAVYYCARAGFGGPDYWGQGTLVTVSS VL: DIQMTQSPSSVSASVGDRVTITCRASQGISSNLAWYQQKPGKAPKLLIYAASSLQSGVPSRFSGSGSGTDFTLTISSLQPEDFATYYCQQANQFPLTFGGGTKVEIK	2.4	2.5	1.1	1.1	1.3	< 0.07	770000	<5e-05
26D5-296-C07-mAb: human IgG1f/kappa mAb; VH SEQ ID NO: 77, VL SEQ ID NO: 94 (antibody, V domains shown) VH: EVQLVESGGGLIQPGGSLRLSCAASGITVSSNYMSWVRQAPGKGLEWVSFIYSGGRTYYADSVKGRFTISRDNSKNTLYLQMNSLRAEDTAVYYCARGGFGGGDYWGQGTLVTVSS VL: DIQMTQSPSSVSASVGDRVTITCRASQYISSNLAWYQQKPGKAPKLLIYAASSLQSGVPSRFSGSGSGTDFTLTISSLQPEDFATYYCQQANSFPLTFGGGTKVEIK						1.4	950000	0.0014
26D5-295-A08-mAb: human IgG1f/kappa mAb; VH SEQ ID NO: 74, VL SEQ ID NO: 88 (antibody, V domains shown) VH: EVQLVESGGGLIQPGGSLRLSCAASGFTVSENYMSWVRQAPGKGLEWVSFIYPGGRTYYADSVKGRFTISRDNSKNTLYLQMNSLRAEDTAVYYCARAGFGGGDYWGQGTLVTVSS VL: DIQMTQSPSSVSASVGDRVTITCRASQGISSNLAWYQQKPGKAPKLLIYAASSLQSGVPSRFSGSGSGTDFTLTISSLQPEDFATYYCQQANSFPLTFGGGTKVEIK						0.58	1e+06	0.00059
P1-073708-1: 26D5 parent Fab (Fab 26D5-GV-Q); VH SEQ ID NO: 82, VL SEQ ID NO: 99 (antibody, V domains shown) VH: EVQLVESGGGLIQPGGSLRLSCAASGFTVSSNYMSWVRQAPGKGLEWVSFIYSGGRTYYADSVKGRFTISRDNSKNTLYLQMNSLRAEDTAVYYCARGGFGGGDYWGQGTLVTVSS VL: DIQMTQSPSSVSASVGDRVTITCRASQGISSWLAWYQQKPGKAPKLLIYAASSLQSGVPSRFSGSGSGTDFTLTISSLQPEDFATYYCQQANSFPLTFGGGTKVEIK	> 28.2	> 28.8	>25.7	>26.2	2.6			
P1-074468-1: first round optimization progeny Fab; VH SEQ ID NO: 62, VL SEQ ID NO: 88 (antibody, V domains shown) VH: EVQLVESGGGLIQPGGSLRLSCAASGFQVSSNAMSWVRQAPGKGLEWVSFIYPGGRTYYADSVKGRFTISRDNSKNTLYLQMNSLRAEDTAVYYCARGGFGGGDYWGQGTLVTVSS VL: DIQMTQSPSSVSASVGDRVTITCRASQGISSNLAWYQQKPGKAPKLLIYAASSLQSGVPSRFSGSGSGTDFTLTISSLQPEDFATYYCQQANSFPLTFGGGTKVEIK	> 38.2	> 43.1	>36.0		2.2			
26D5-295-D07-mAb: human IgG1f/kappa mAb; VH SEQ ID NO: 75, VL SEQ ID NO: 88 (antibody, V domains shown) VH: EVQLVESGGGLIQPGGSLRLSCAASGFQVSENYMSWVRQAPGKGLEWVSFIYSGGRTYYADSVKGRFTISRDNSKNTLYLQMNSLRAEDTAVYYCARGGFGGGDYWGQGTLVTVSS VL: DIQMTQSPSSVSASVGDRVTITCRASQGISSNLAWYQQKPGKAPKLLIYAASSLQSGVPSRFSGSGSGTDFTLTISSLQPEDFATYYCQQANSFPLTFGGGTKVEIK						1	800000	0.00081
